Experiments:
[1] = cited from earlier work
[2] = human, in vivo; cited from earlier work
[3] = Immunogenicity test, antibody titre by direct ELISA, Example 6; format: in vivo, mouse (Balb/c); details: 30 nmol/kg daily for 28 days, serum on day 45
GIPR = biological target: T1, GIPR (Homo sapiens, UniProt P48546); details: cited from earlier work
T1 sequence (P48546 22-466): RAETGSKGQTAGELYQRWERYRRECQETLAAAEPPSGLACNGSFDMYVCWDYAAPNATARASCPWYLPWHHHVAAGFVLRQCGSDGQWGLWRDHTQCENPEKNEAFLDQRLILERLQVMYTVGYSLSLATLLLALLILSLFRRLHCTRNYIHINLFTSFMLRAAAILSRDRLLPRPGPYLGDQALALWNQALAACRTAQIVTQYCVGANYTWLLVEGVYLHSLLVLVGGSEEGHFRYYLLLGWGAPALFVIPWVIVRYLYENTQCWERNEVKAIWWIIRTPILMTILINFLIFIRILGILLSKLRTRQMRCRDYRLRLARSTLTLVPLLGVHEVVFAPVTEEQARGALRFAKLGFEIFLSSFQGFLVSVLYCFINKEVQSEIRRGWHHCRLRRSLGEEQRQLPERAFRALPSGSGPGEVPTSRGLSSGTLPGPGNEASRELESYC

Q: Which Half-life in vivo [1] does the source give for GLP-1 [天然GLP-1] here?
A: ~2 分钟

Q: Which Antibody formation rate [2] does the source give for Taspoglutide here?
A: 49 %

Q: For Glucagon [C001], which Immunogenicity in vivo [3] is on record?
A: 极低

Q: What about the GIPR agonist activity (GIPR) of the same substance?
A: 没有GIPR激动活性

— CN109836488A, “一种治疗代谢疾病的胰高血糖素类似物” (Zhejiang Doer Biologics Co Ltd, priority 2017, dated 2019)
